These are literature values, as cited in article PMC7062049.

By Kd is commonly meant the free concentration of one partner at which half of the binding sites on the other are occupied at equilibrium, for simple one-to-one binding.

The target in the series is HP1β CSD (Mus musculus) (UniProt P83917).

For HP1β CSD (from UniProt P83917), the equilibrium dissociation constant (Kd) was 150 nM.
